From patent publication US20240336672A1

Assays:
Conditions in all cases: remark: other sources report otherwise
[1] = molecular target: SARS-CoV-2 delta plus variant RBD (SARS-CoV-2); test: ELISA; set-up: unit not given beside the values
[2] = molecular target: T1, SARS-CoV-2 delta variant B.1.617.2/3 RBD domain (SARS-CoV-2); test: ELISA; set-up: unit not given beside the values
[3] = molecular target: T2, SARS-CoV-2 kappa variant B.1.617.1/3 RBD domain (SARS-CoV-2); test: ELISA; set-up: unit not given beside the values
[4] = molecular target: SARS-CoV-2 delta plus variant RBD (SARS-CoV-2); test: RBD/ACE2 blocking ELISA
[5] = molecular target: T1, SARS-CoV-2 delta variant B.1.617.2/3 …; test: RBD/ACE2 blocking ELISA
[6] = molecular target: T2, SARS-CoV-2 kappa variant B.1.617.1/3 …; test: RBD/ACE2 blocking ELISA
[7] = molecular target: SARS-CoV-2 delta plus variant RBD (SARS-CoV-2); test: ELISA
[8] = molecular target: T2, SARS-CoV-2 kappa variant B.1.617.1/3 …; test: ELISA
[9] = molecular target: T3, SARS-CoV-2 omicron variant B.1.1.529 RBD domain (SARS-CoV-2); test: ELISA; unit from paragraph 452, none printed in the heatmap
[10] = molecular target: T3, SARS-CoV-2 omicron variant B.1.1.529 …; test: ELISA; set-up: unit not given beside the values
[11] = molecular target: T4, SARS-CoV-2 omicron variant B.1.1.529 Spike ectodomain (tri-S, HexaPro) (SARS-CoV-2), P0DTC2; test: ELISA; set-up: unit not given beside the values
[12] = molecular target: SARS-CoV-2 delta plus variant RBD (SARS-CoV-2); test: ELISA; set-up: unit not given beside the values; remark: listed apart in the source
[13] = molecular target: T1, SARS-CoV-2 delta variant B.1.617.2/3 …; test: ELISA; set-up: unit not given beside the values; remark: listed apart in the source
[14] = molecular target: T2, SARS-CoV-2 kappa variant B.1.617.1/3 …; test: ELISA; set-up: unit not given beside the values; remark: listed apart in the source
[15] = molecular target: SARS-CoV-2 delta plus variant RBD (SARS-CoV-2); test: RBD-ACE2 competition ELISA; set-up: unit not given beside the values
[16] = molecular target: T1, SARS-CoV-2 delta variant B.1.617.2/3 …; test: RBD-ACE2 competition ELISA; set-up: unit not given beside the values
[17] = molecular target: T2, SARS-CoV-2 kappa variant B.1.617.1/3 …; test: RBD-ACE2 competition ELISA; set-up: unit not given beside the values
[18] = molecular target: T4, SARS-CoV-2 omicron variant B.1.1.529 …; test: tri-S/ACE2 blocking ELISA [B]
[19] = molecular target: T1, SARS-CoV-2 delta variant B.1.617.2/3 …; test: ELISA
[20] = molecular target: SARS-CoV-2 Omicron subvariant BA.2 RBD (SARS-CoV-2); test: competition ELISA, biotinylated RBD to immobilized ACE2 ectodomain
[21] = molecular target: SARS-CoV-2 delta plus variant RBD (SARS-CoV-2); test: as above
[22] = molecular target: T1, SARS-CoV-2 delta variant B.1.617.2/3 …; test: as above
[23] = molecular target: T2, SARS-CoV-2 kappa variant B.1.617.1/3 …; test: as above
[24] = molecular target: T3, SARS-CoV-2 omicron variant B.1.1.529 …; test: as above
[25] = molecular target: T4, SARS-CoV-2 omicron variant B.1.1.529 …; test: competition ELISA, biotinylated tri-S to immobilized ACE2 ectodomain

Binder | AUC [1] | AUC [2] | AUC [3] | % binding inhibition [4] [%] | % binding inhibition [5] [%] | % binding inhibition [6] [%] | OD405nm [7] | OD405nm [8] | AUC [10] | AUC [11] | AUC (RBD bind.) [12] | AUC (RBD bind.) [13] | AUC (RBD bind.) [14] | AUC (RBD block.) [15] | AUC (RBD block.) [16] | AUC (RBD block.) [17] | AUC of blocking [18] | also measured
ADG-2 (antibody, V domains shown) VH: EVQLVESGGGLVKPGGSLRLSCAASGFTFSSYYMNWVRQAPGKGLEWVSSISEDGYSTYYPDSLKGRFTISRDSAKNSLYLQMNSLRADDTAVYYCARDFSGHTAWAGTGFEYWGQGTLVTVSS VL: QSVLTQPPSVSGAPGQRITISCTGSSSNIGAGYDVHWYQQLPGTAPKLLIYGSSSRNSGVPDRFSGSKSGTSASLAITGLQAEDEADYYCQSYDSSLSVLYTFGTGTKVTVL | 3 | 3 | 4 | 80 | 96 | 95 | – | – | – | – | – | – | – | – | – | – | – | –
COV2-2130 (antibody, V domains shown) VH: EVQLVESGGGLVKPGGSLRLSCAASGFTFRDVWMSWVRQAPGKGLEWVGRIKSKIDGGTTDYAAPVKGRFTISRDDSKNTLYLQMNSLKTEDTAVYYCTTAGSYYYDTVGPGLPEGKFDYWGQGTLVTVSS VL: not shown | 3 | 3 | 4 | 88 | 77 | – | – | – | – | – | – | – | – | – | – | – | – | –
Cilgavimab (antibody, V domains shown) VH: EVQLVESGGGLVKPGGSLRLSCAASGFTFRDVWMSWVRQAPGKGLEWVGRIKSKIDGGTTDYAAPVKGRFTISRDDSKNTLYLQMNSLKTEDTAVYYCTTAGSYYYDTVGPGLPEGKFDYWGQGTLVTVSS VL: not shown | – | – | – | – | – | – | 3.5 | 3.7 | – | – | – | – | – | – | – | – | – | EC50 [9]: 0.027 µg/mL
Cv2.1353 (recombinant human IgG1) (antibody) heavy: EVQLVESGGGLVQPGGSLRLSCAASGVTVSSNYMNWVRQAPGKGLEWVSVIYSGGSTFYADSVKGRFIISRDNSKNTLYLQMNSLKTEDTAVYYCARDLGPMGFDIWGQGTMVTVSSASTKGPSVFPLAPSSKSTSGGTAALGCLVKDYFPEPVTVSWNSGALTSGVHTFPAVLQSSGLYSLSSVVTVPSSSLGTQTYICNVNHKPSNTKVDKKVEPKSCDKTHTCPPCPAPELLGGPSVFLFPPKPKDTLMISRTPEVTCVVVDVSHEDPEVKFNWYVDGVEVHNAKTKPREEQYNSTYRVVSVLTVLHQDWLNGKEYKCKVSNKALPAPIEKTISKAKQPREPQVYTLPPSRDELTKNQVSLTCLVKGFYPSDIAVEWESNGQPENNYKTTPPVLDSDGSFFLYSKLTVDKSRWQQGNVFSCSVMHEALHNHYTQKSLSLSPGK light: DIQMTQSPSFLSASVGDRVTITCRASQGISSYLAWYQQKPGKAPKLLIYAASTLQSGVPSRFSGSGSGTEFTLTISSLQPEDFATYYCQQLNSDPPVTFGPGTKVDIKRTVAAPSVFIFPPSDEQLKSGTASVVCLLNNFYPREAKVQWKVDNALQSGNSQESVTEQDSKDSTYSLSSTLTLSKADYEKHKVYACEVTHQGLSSPVTKSFNRGEC | – | – | – | – | – | – | – | – | 3 | 7 | 13 | 13 | 13 | 142 | 97 | 112 | 4 | –
Cv2.3194 (recombinant human IgG1) (antibody) heavy: EVQLVESGGGLIQPGGSLRLSCAASGITVTSNYMSWVRQAPGKGLEWVSVIYPGGSTFYADSVKGRFTISRDNSKNTLYLQMNSLRAEDTAVYYCARDLVVYGMDVWGQGTTVTVSSASTKGPSVFPLAPSSKSTSGGTAALGCLVKDYFPEPVTVSWNSGALTSGVHTFPAVLQSSGLYSLSSVVTVPSSSLGTQTYICNVNHKPSNTKVDKKVEPKSCDKTHTCPPCPAPELLGGPSVFLFPPKPKDTLMISRTPEVTCVVVDVSHEDPEVKFNWYVDGVEVHNAKTKPREEQYNSTYRVVSVLTVLHQDWLNGKEYKCKVSNKALPAPIEKTISKAKQPREPQVYTLPPSRDELTKNQVSLTCLVKGFYPSDIAVEWESNGQPENNYKTTPPVLDSDGSFFLYSKLTVDKSRWQQGNVFSCSVMHEALHNHYTQKSLSLSPGK light: EIVLTQSPGTLSLSPGERATLSCRASQSVSSSYLAWYQQKPGQAPRLLIYGASSRATGIPGRFSGSGSGTDFTLTISRLEPEDFAIYYCQQGVTFGGGTKVEIKRTVAAPSVFIFPPSDEQLKSGTASVVCLLNNFYPREAKVQWKVDNALQSGNSQESVTEQDSKDSTYSLSSTLTLSKADYEKHKVYACEVTHQGLSSPVTKSFNRGEC | 3 | 3 | 4 | 94 | 94 | 92 | 3.5 | 3.6 | 10 | 12 | 13 | 13 | 13 | 141 | 102 | 128 | 76 | OD405nm [19]: 3.4; IC50 [20]: 2.71 µg/mL; IC90 [20]: 29.1 µg/mL; IC50 [21]: 0.28 µg/mL; IC90 [21]: 0.967 µg/mL; IC50 [22]: 0.827 µg/mL; IC90 [22]: 1.31 µg/mL; IC50 [23]: 0.469 µg/mL; IC90 [23]: 1.1 µg/mL; IC50 [24]: 6.53 µg/mL; IC90 [24]: 37.6 µg/mL; IC50 [25]: 0.876 µg/mL; IC90 [25]: 1.2 µg/mL
Cv2.3235 (recombinant human IgG1) (antibody) heavy: EVQLVESGGGLIQPGGSLRLSCAASGFTVSRNYMSWVRQAPGKGLEWVSVIYSGGSTFYADSVKGRFTISRDNSKNTLYLQMNSLRAEDTAVYYCARDGDYYGMDVWGQGTTVTVSSASTKGPSVFPLAPSSKSTSGGTAALGCLVKDYFPEPVTVSWNSGALTSGVHTFPAVLQSSGLYSLSSVVTVPSSSLGTQTYICNVNHKPSNTKVDKKVEPKSCDKTHTCPPCPAPELLGGPSVFLFPPKPKDTLMISRTPEVTCVVVDVSHEDPEVKFNWYVDGVEVHNAKTKPREEQYNSTYRVVSVLTVLHQDWLNGKEYKCKVSNKALPAPIEKTISKAKQPREPQVYTLPPSRDELTKNQVSLTCLVKGFYPSDIAVEWESNGQPENNYKTTPPVLDSDGSFFLYSKLTVDKSRWQQGNVFSCSVMHEALHNHYTQKSLSLSPGK light: DIQMTQSPSFLSASVGDRVTITCRASQGISSFLAWYQQKPGKAPKLLIYGASTLQSGVTSRFSGSGSGTEFTLTISSLQPEDFATYYCQRLDSYPPITFGQGTRLEIKRTVAAPSVFIFPPSDEQLKSGTASVVCLLNNFYPREAKVQWKVDNALQSGNSQESVTEQDSKDSTYSLSSTLTLSKADYEKHKVYACEVTHQGLSSPVTKSFNRGEC | – | – | – | – | – | – | – | – | 1 | 1 | 6 | 13 | 12 | 9 | 71 | 111 | 0 | EC50 (read off the curve) [7]: 0.3 µg/mL
